Data: article PMC6353875 (2019)

Target: EZH2 SRM-SANT1 (residues 141–251) (human, UniProt Q15910 141-251)
Assay: NMR

Sequence of EZH2 SRM-SANT1 (residues 141–251) (Q15910 141-251): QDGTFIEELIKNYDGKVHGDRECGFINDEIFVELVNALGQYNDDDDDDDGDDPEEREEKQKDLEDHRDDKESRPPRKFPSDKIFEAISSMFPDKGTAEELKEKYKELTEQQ

Kd: > 5 mM
B1: unmodified histone H2B peptide (residues 1–11) (peptide)
peptide: PEPAKSAPAPK
